Where two headings read alike, the source gives them in different places. Blank lines part the entries; values can stand above or below the molecule they belong to.
Legend:
[1] = target: endogenous mouse APP (mouse (endogenous in C57BL/6 cortex and mouse cells)); test: native gel or EMSA; Blue Native PAGE of membranes of homogenised mouse cortices (E14 to 12 months; WT, non-transgenic and J20 mice; KO cortices as antibody controls), n-dodecyl-β-D-maltoside; Western blot with Y188, 57 or D2-II
[2] = target: endogenous mouse APP (mouse (endogenous in C57BL/6 cortex and mouse cells)); test: as above; remark: listed apart in the source
[3] = target: APP F1 (APP695 with a C-terminal FKBP tag and HA tag); test: native gel or EMSA; Blue Native PAGE (4–15% Tris–HCl gel, overnight, 4 °C) of membranes of transiently transfected N2a cells solubilised with n-dodecyl-β-D-maltoside; no dimerizer (untreated or ethanol vehicle); Western blot; dimer as percent of total signal
[4] = target: hAPP with the FAD mutations Swedish (K670N/M671L) and Indiana (V717F), transgenic in J20 mice (human) (UniProt P05067); test: native gel or EMSA; Blue Native PAGE of membranes of homogenised mouse cortices (E14 to 12 months; WT, non-transgenic and J20 mice; KO cortices as antibody controls), n-dodecyl-β-D-maltoside; Western blot with Y188, 57 or D2-II
[5] = target: endogenous mouse APLP1 (mouse (endogenous in C57BL/6 cortex and mouse cells)); test: as above
[6] = target: APLP1 F1 (APLP1 with a C-terminal FKBP tag and HA tag); test: native gel or EMSA; Blue Native PAGE (4–15% Tris–HCl gel, overnight, 4 °C) of membranes of transiently transfected N2a cells solubilised with n-dodecyl-β-D-maltoside; no dimerizer (untreated or ethanol vehicle); Western blot; dimer as percent of total signal
[7] = target: endogenous human APP (human (endogenous in middle frontal gyrus)); test: native gel or EMSA; Blue Native PAGE, semi-denaturing conditions, of human middle frontal gyrus (controls n = 5, AD n = 6); Western blot with Y188
[8] = native gel or EMSA; as a1, but the cells were treated with 100 nM of the rapamycin analogue AP20187 (dimerizer) overnight, added 4 h post-transfection
[9] = native gel or EMSA; Blue Native PAGE (4–15% Tris–HCl gel, overnight, 4 °C) of membranes of transiently transfected N2a cells solubilised with n-dodecyl-β-D-maltoside; no dimerizer (untreated or ethanol vehicle); Western blot; dimer as percent of total signal
[10] = target: APLP2 F1 (APLP2-763 with a C-terminal FKBP tag and HA tag); test: as above
[11] = target: T1, endogenous mouse APLP2 (mouse (endogenous in C57BL/6 cortex and mouse cells)), Q06335; test: native gel or EMSA; Blue Native PAGE of membranes of homogenised mouse cortices (E14 to 12 months; WT, non-transgenic and J20 mice; KO cortices as antibody controls), n-dodecyl-β-D-maltoside; Western blot with Y188, 57 or D2-II; settings: remark: other sources report otherwise
T1 chain: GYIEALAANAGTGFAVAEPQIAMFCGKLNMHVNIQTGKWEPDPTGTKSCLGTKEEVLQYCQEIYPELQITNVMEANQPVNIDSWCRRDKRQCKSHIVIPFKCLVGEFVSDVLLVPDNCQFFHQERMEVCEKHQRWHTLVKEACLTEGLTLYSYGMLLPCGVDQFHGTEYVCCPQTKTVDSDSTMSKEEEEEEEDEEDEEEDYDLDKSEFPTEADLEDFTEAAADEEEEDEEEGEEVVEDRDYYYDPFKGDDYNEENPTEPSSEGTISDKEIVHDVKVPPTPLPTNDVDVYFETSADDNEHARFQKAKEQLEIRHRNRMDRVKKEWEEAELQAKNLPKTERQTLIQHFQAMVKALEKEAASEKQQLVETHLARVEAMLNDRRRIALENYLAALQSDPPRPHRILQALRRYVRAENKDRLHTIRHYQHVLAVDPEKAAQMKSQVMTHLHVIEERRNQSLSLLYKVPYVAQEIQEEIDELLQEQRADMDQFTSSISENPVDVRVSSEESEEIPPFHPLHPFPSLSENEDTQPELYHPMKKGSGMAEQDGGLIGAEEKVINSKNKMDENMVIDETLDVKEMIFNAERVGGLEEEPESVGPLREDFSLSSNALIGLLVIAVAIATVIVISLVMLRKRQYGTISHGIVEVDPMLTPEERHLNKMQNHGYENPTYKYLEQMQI

percent dimer [1]: 45% | percent dimer [2]: 48.9% | percent dimer (1 to 12 months old mice) [2]: 49% | percent dimer (4 months) [2]: 61.3% | percent dimer (12 months) [2]: 54.8%
Molecule: endogenous mouse APP (natural protein)

percent dimer [3]: 22.2%
Molecule: APP F1 (APP695 with a C-terminal FKBP tag and HA tag)

percent dimer (4 months) [4]: 58.1% | percent dimer (12 months) [4]: 58%
Molecule: hAPP with the FAD mutations Swedish (K670N/M671L) and Indiana (V717F), transgenic in J20 mice (from UniProt P05067 18-770) (natural protein)

percent dimer [5]: 45.6%
Molecule: endogenous mouse APLP1 (natural protein)

percent dimer [6]: 31.8%
Molecule: APLP1 F1 (APLP1 with a C-terminal FKBP tag and HA tag)

percent dimer (non-demented controls) [7]: 21.8%
Molecule: endogenous human APP (natural protein)

percent dimer [10]: 16.2%
Molecule: APLP2 F1 (APLP2-763 with a C-terminal FKBP tag and HA tag)
percent in the HMW complex with AP20187 [8]: > 60% of APLP2 in the HMW complex | percent in the HMW complex [9]: < 20%, in the high molecular weight (HMW) complex

percent dimer [11]: 26.1%
B1: endogenous mouse APLP2, Q06335 32-707 (natural protein)
chain: T1 chain

From publication PMC10398996
